T1: Lsb3, P43603
T1 sequence (P43603 385-451, looked up): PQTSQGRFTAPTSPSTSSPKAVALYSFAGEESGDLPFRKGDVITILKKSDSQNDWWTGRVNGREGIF

T2: Cyk3, Q07533
T2 sequence (Q07533 1-83, looked up): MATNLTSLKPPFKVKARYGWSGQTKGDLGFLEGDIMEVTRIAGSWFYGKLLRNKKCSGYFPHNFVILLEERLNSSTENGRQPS

T3: Hse1, P38753
T3 sequence (P38753 208-285, looked up): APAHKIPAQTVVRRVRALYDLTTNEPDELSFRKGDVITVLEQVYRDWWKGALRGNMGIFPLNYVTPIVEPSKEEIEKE

T4: Pin3, Q06449
T4 sequence (Q06449 53-122, looked up): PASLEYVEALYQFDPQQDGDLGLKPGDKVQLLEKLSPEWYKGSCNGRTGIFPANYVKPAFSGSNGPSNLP

T5: Bzz1-2, P38822
T5 sequence (P38822 568-633, looked up): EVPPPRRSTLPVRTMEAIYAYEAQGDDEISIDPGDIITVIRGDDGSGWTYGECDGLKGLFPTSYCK

T6: Bbc1, P47068
T6 sequence (P47068 1-78, looked up): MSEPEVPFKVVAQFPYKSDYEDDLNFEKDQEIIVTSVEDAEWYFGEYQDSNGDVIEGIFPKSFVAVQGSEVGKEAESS

T7: Lsb1, P53281
T7 sequence (P53281 45-122, looked up): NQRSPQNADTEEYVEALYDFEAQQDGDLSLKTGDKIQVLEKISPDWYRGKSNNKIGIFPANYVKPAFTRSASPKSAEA

T8: Sla1-3, P32790
T8 sequence (P32790 344-424, looked up): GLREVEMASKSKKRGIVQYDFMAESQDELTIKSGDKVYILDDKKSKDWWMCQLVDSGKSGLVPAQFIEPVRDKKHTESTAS

T9: Lsb4, P32793
T9 sequence (P32793 402-468, looked up): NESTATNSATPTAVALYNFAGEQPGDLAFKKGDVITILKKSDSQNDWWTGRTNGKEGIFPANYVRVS

T10: Boi1, P38041
T10 sequence (P38041 1-86, looked up): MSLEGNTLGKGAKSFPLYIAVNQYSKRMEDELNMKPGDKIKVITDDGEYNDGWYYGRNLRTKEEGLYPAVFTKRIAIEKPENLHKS

T11: Pex13, P80667
T11 sequence (P80667 295-386, looked up): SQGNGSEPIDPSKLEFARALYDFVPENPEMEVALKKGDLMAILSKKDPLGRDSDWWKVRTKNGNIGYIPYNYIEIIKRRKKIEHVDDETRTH

T12: Cdc25, P04821
T12 sequence (P04821 50-136, looked up): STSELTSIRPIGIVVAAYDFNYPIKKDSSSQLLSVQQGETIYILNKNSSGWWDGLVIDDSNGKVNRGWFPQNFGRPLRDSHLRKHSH

T13: Boi2, P39969
T13 sequence (P39969 32-116, looked up): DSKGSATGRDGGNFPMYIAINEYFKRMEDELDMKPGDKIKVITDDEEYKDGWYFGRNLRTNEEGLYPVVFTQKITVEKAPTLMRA

T14: Bzz1-1, P38822
T14 sequence (P38822 478-572, looked up): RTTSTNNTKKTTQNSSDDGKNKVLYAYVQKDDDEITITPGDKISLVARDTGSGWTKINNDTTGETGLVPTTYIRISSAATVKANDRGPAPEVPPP

T15: Sla1-2, P32790
T15 sequence (P32790 60-140, looked up): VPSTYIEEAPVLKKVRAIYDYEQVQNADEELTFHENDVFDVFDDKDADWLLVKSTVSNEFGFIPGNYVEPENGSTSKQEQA

T16: Nbp2, Q12163
T16 sequence (Q12163 103-180, looked up): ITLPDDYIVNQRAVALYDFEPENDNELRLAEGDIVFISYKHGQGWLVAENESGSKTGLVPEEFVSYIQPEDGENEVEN

T17: Fus1, P11710
T17 sequence (P11710 432-512, looked up): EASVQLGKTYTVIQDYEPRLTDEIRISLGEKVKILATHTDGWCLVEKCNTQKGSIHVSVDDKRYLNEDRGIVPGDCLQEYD

T18: Abp1, P15891
T18 sequence (P15891 535-592, looked up): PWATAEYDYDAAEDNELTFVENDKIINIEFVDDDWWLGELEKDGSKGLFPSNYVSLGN

T19: Bud14, P27637
T19 sequence (P27637 247-328, looked up): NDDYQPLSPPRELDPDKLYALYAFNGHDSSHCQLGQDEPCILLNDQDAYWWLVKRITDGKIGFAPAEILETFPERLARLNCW

T20: Hof1, Q05080
T20 sequence (Q05080 590-669, looked up): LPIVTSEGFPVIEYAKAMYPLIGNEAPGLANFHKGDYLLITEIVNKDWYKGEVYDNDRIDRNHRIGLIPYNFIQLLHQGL

T21: Myo5, Q04439
T21 sequence (Q04439 1072-1160, looked up): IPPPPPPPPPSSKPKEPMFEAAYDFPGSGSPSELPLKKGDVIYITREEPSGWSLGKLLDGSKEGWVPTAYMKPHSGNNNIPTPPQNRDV


Experiments:
Test in all cases: SPOT array
Lsb3, P43603 = target: T1, Lsb3, P43603; conditions: median of control spots 406
Sho1, P40073 = conditions: median of control spots 1148
Cyk3, Q07533 = target: T2, Cyk3, Q07533; conditions: median of control spots 1451
Hse1, P38753 = target: T3, Hse1, P38753; conditions: median of control spots 1727
Pin3, Q06449 = target: T4, Pin3, Q06449; conditions: median of control spots 2171
Bzz1-2, P38822 = target: T5, Bzz1-2, P38822; conditions: median of control spots 4538
Bem1-1, P29366 = conditions: median of control spots 4282
Bbc1, P47068 = target: T6, Bbc1, P47068; conditions: median of control spots 796
GST = conditions: median of control spots 978
Lsb1, P53281 = target: T7, Lsb1, P53281; conditions: median of control spots 388
Sla1-3, P32790 = target: T8, Sla1-3, P32790; conditions: median of control spots 5475
Rvs167, P39743 = conditions: median of control spots 2707
Bem1-2, P29366 = conditions: median of control spots 4347
Lsb4, P32793 = target: T9, Lsb4, P32793; conditions: median of control spots 397
Boi1, P38041 = target: T10, Boi1, P38041; conditions: median of control spots 1162
Pex13, P80667 = target: T11, Pex13, P80667; conditions: median of control spots 1341
Cdc25, P04821 = target: T12, Cdc25, P04821; conditions: median of control spots 969
Boi2, P39969 = target: T13, Boi2, P39969; conditions: median of control spots 1161
Bzz1-1, P38822 = target: T14, Bzz1-1, P38822; conditions: median of control spots 4446
Sla1-2, P32790 = target: T15, Sla1-2, P32790; conditions: median of control spots 712
Nbp2, Q12163 = target: T16, Nbp2, Q12163; conditions: median of control spots 357
Fus1, P11710 = target: T17, Fus1, P11710; conditions: median of control spots 1200
Abp1, P15891 = target: T18, Abp1, P15891; conditions: median of control spots 935
Bud14, P27637 = target: T19, Bud14, P27637; conditions: median of control spots 956
Hof1, Q05080 = target: T20, Hof1, Q05080; conditions: median of control spots 4086
Myo3, P36006 = conditions: median of control spots 468
Myo5, Q04439 = target: T21, Myo5, Q04439; conditions: median of control spots 471

Chain of Bem1-2, P29366 (P29366 139-227): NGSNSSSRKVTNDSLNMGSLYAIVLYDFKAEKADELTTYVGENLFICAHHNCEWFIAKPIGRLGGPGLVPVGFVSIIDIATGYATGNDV
Chain of Rvs167, P39743 (P39743 419-482): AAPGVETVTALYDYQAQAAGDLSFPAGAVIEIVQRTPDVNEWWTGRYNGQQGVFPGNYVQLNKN
Chain of Sho1, P40073 (P40073 287-367): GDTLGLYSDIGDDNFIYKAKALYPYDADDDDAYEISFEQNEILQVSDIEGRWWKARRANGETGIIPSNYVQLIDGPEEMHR
Chain of Bem1-1, P29366 (P29366 55-141): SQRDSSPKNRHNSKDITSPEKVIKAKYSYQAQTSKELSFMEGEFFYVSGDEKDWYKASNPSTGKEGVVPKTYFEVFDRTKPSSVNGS

SPOT intensity (Lsb3, P43603)	SPOT intensity (Sho1, P40073)	SPOT intensity (Cyk3, Q07533)	SPOT intensity (Hse1, P38753)	SPOT intensity (Pin3, Q06449)	SPOT intensity (Bzz1-2, P38822)	SPOT intensity (Bem1-1, P29366)	SPOT intensity (Bbc1, P47068)	SPOT intensity (GST)	SPOT intensity (Lsb1, P53281)	SPOT intensity (Sla1-3, P32790)	SPOT intensity (Rvs167, P39743)	SPOT intensity (Bem1-2, P29366)	SPOT intensity (Lsb4, P32793)	SPOT intensity (Boi1, P38041)	SPOT intensity (Pex13, P80667)	SPOT intensity (Cdc25, P04821)	SPOT intensity (Boi2, P39969)	SPOT intensity (Bzz1-1, P38822)	SPOT intensity (Sla1-2, P32790)	Binder	further results
0	0	1	0	0	4	0	7	0	0	0	0	1	2	1	0	0	1	4	0	PELAPKREAPKPPAN	SPOT intensity (Nbp2, Q12163): 281; SPOT intensity (Fus1, P11710): 0; SPOT intensity (Abp1, P15891): 0; SPOT intensity (Bud14, P27637): 0; SPOT intensity (Hof1, Q05080): 0; SPOT intensity (Myo3, P36006): 497; SPOT intensity (Myo5, Q04439): 262
38	46	1	29	11	4030	0	115	2	171	1790	45	109	39	1	8	0	1	1720	4	VRTRRRPPPPPIPST	SPOT intensity (Nbp2, Q12163): 35; SPOT intensity (Fus1, P11710): 0; SPOT intensity (Abp1, P15891): 107; SPOT intensity (Bud14, P27637): 8; SPOT intensity (Hof1, Q05080): 6; SPOT intensity (Myo3, P36006): 296; SPOT intensity (Myo5, Q04439): 188
43	50	1	20	30	9	0	158	2	56	9	0	169	35	5	21	16	2	0	3	QLLNPNRRAPRRPLS	SPOT intensity (Nbp2, Q12163): 1130; SPOT intensity (Fus1, P11710): 1; SPOT intensity (Abp1, P15891): 125; SPOT intensity (Bud14, P27637): 11; SPOT intensity (Hof1, Q05080): 3; SPOT intensity (Myo3, P36006): 168; SPOT intensity (Myo5, Q04439): 13
0	66	2	59	27	4	0	47	0	6	45	0	11	3	7	19	172	2	0	0	RLSRLLLSLPPESFT	SPOT intensity (Nbp2, Q12163): 42; SPOT intensity (Fus1, P11710): 81; SPOT intensity (Abp1, P15891): 57; SPOT intensity (Bud14, P27637): 50; SPOT intensity (Hof1, Q05080): 89; SPOT intensity (Myo3, P36006): 10; SPOT intensity (Myo5, Q04439): 0
26	103	1	6	68	0	3	22	0	35	8	0	1	18	10	59	29	4	0	6	LEFRAILFIPKRAPF	SPOT intensity (Nbp2, Q12163): 53; SPOT intensity (Fus1, P11710): 87; SPOT intensity (Abp1, P15891): 92; SPOT intensity (Bud14, P27637): 13; SPOT intensity (Hof1, Q05080): 5; SPOT intensity (Myo3, P36006): 34; SPOT intensity (Myo5, Q04439): 9
0	0	0	0	2	0	0	56	0	0	12	0	0	1	0	7	3	0	10	0	APKREAPKPPANTSP	SPOT intensity (Nbp2, Q12163): 139; SPOT intensity (Fus1, P11710): 0; SPOT intensity (Abp1, P15891): 9; SPOT intensity (Bud14, P27637): 0; SPOT intensity (Hof1, Q05080): 0; SPOT intensity (Myo3, P36006): 277; SPOT intensity (Myo5, Q04439): 126

Source: publication PMC2756588
